US20150080549A1 (Chugai, published 2015)
Starred links: 1 amine or outer side, 2 acyl side, 3 side chain; linkers in the order of their positions; H or OH if unused. Positions of bridges follow the written chain, without caps; N, C: chain ends. Non-standard residues stand in square brackets, D forms with d. Hyp(Et) = (2S,4R)-4-ethoxypyrrolidine-2-carboxylic acid, CCO[C@@H]1C[C@@H](C(=O)[*:2])N([*:1])C1; γEtAbu = 4-(ethylamino)butanoic acid, CCN(CCCC(=O)[*:2])[*:1]; Phe(4-CF3) = N[C@@H](Cc1ccc(C(F)(F)F)cc1)C(=O)O; NMeAla(4-thiazolyl) = CN[C@@H](Cc1cscn1)C(=O)O; NMePhe(3-Cl) = CN[C@@H](Cc1cccc(Cl)c1)C(=O)O; Met(O2) = CS(=O)(=O)CC[C@H](N)C(=O)O; NMeF = CN[C@@H](Cc1ccccc1)C(=O)O; FlPu(urea) = not defined here; Phg = N[C@H](C(=O)O)c1ccccc1; NMeS = CN[C@@H](CO)C(=O)O; βAla = NCCC(=O)O; Sar = CNCC(=O)O

T1: biotinylated Interleukin-6 receptor (IL-6R) (human, UniProt P08887 20-344, limits assumed, biotinylated (method of BMC biotechnology, 2008, 8, 41 and Protein Science, 1999, 8, 921-929); site not stated)
T1 construct: also called human IL-6 receptor; hIL-6R
T1 sequence (looked up): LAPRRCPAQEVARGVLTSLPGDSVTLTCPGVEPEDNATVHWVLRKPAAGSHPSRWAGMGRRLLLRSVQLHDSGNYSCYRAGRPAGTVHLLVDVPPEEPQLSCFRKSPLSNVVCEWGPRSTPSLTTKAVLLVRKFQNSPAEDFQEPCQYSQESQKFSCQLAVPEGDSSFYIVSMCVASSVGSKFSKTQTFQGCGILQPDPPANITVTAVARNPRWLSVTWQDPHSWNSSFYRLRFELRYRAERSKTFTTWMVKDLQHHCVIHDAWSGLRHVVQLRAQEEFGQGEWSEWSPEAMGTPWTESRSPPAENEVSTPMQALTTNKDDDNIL


target: T1, biotinylated Interleukin-6 receptor …; assay: ECL immunoassay (MSD): biotinylated target on streptavidin plate, translated FlPu(urea)-labelled cyclic peptide (Translation Solution T), anti-fluorescein and SULFO-TAG anti-mouse antibody; no-template control 177
Description: (§1) 0.5 μl of a 200 mM EDTA solution (pH 8.0, Nacalai, 14362-24) and 0.5 μl of a 100 mM TCEP solution (pH 6.6) were added to 5 μL of the translation mixture, and the mixture was incubated at 37° C. for 120 minutes to cause cyclization reaction. 11 μL of desulfurization buffer (15 mM cysteine, 36 mM TCEP) was added to the cyclization product, and the mixture was incubated at 42° C. for 1 minutes, after which 4 μL of 1 M VA-044 (Wako, CAS No. 27776-21-2) was added and the mixture was allowed to stand at 42° C. for 1 hour.
(§2) Immunoassay was carried out using the above peptide solution for ECL assay. 500 nM biotinylated target protein was added at 10 μL per well to MSD Streptavidin MULTI-ARRAY 384-well plate (Meso Scale Discovery, L25SB-1), and reaction was conducted at room temperature for 1 hour with shaking at 500 rpm to immobilize the target protein. 2% skim milk PBS was added at 50 μL per well, and blocking was carried out by allowing to stand at room temperature for 2 hours. The reaction solution was removed and the plate was washed with PBS containing 0.05% Tween 20 (PBST) three times, after which 10 μL of the peptide solution for ECL assay was added and the plate was shaken at room temperature for 50 minutes at 500 rpm. The reaction solution was removed and the plate was washed with PBST three times, after which 10 μL of IgG Fraction Monoclonal Mouse Anti-Fluorescein (Jackson ImmunoResearch, 200-002-037) diluted to 0.5 μg/mL with 2% skim milk PBS was added, and reaction was conducted at room temperature for 50 minutes with shaking at 500 rpm. The reaction solution was removed and the plate was washed with PBST three times, after which 10 μL of SULFO-TAG Anti-Mouse Antibody (Meso Scale Discovery, R32AC-5) diluted to 1 μg/mL with 2% skim milk PBS was added, and reaction was conducted at room temperature for 50 minutes with shaking at 500 rpm. The reaction solution was removed and the plate was washed with PBST three times, after which 35 μl, of 2× Read Buffer T (Meso Scale Discovery, R92TC-3) was added and measurement was carried out using SECTOR Imager 2400 (Meso Scale Discovery).

Binder	ECL signal
APVI[NMeF][Met(O2)]P[NMePhe(3-Cl)]V[Met(O2)]DP[Sar]SGSGSGS-{FlPu(urea)} (lactam N-11; reading uncertain, Translated in ECL Translation Solution T, cyclized and desulfurized; not isolated; also called translation product of template DNA DME-13) [SEQ ID NO: PE-13 (IL-6R binder) peptide]	537000
AII[NMeAla(4-thiazolyl)]WP[NMePhe(3-Cl)][Met(O2)][dY][βAla]DP[NMePhe(3-Cl)]SGSGSGS-{FlPu(urea)} (lactam N-11; reading uncertain, Translated in ECL Translation Solution T, cyclized and desulfurized; not isolated; also called translation product of template DNA DME-14) [SEQ ID NO: PE-14 (IL-6R binder) peptide]	45600
APII[NMeF][Met(O2)]P[NMePhe(3-Cl)][dY]VDSTSGSGSGS-{FlPu(urea)} (lactam N-11; reading uncertain, Translated in ECL Translation Solution T, cyclized and desulfurized; not isolated; also called translation product of template DNA DME-2) [SEQ ID NO: PE-2 (IL-6R binder) peptide]	307000
APIIW[NMePhe(3-Cl)][Met(O2)]P[NMePhe(3-Cl)][dY]DV[dY]SGSGSGS-{FlPu(urea)} (lactam N-11; reading uncertain, Translated in ECL Translation Solution T, cyclized and desulfurized; not isolated; also called translation product of template DNA DME-3) [SEQ ID NO: PE-3 (IL-6R binder) peptide]	70000

target: T2, biotinylated Recombinant Human Tumor Necrosis Factor-alpha (Prospec, Catalog Number #CYT-223) (human, UniProt P01375 77-233, biotinylated with EZ-Link NHS-PEG4-Biotin (Thermo scientific 21329); sites not stated); assay: SPR, Biacore T200, 20 C; biotinylated TNFα captured on sensor chip CAP, peptide as analyte; KD=koff/kon from curve fitting
T2 construct: Bought protein; also called TNFα; tumor necrosis factor-α
Description: An SPR experiment for analyzing the interaction between synthetic peptides and TNFα was conducted using Biacore T200 (GE healthcare) at 20° C. Synthetic peptides were added to the immobilized protein, and the interaction was evaluated.
Surfactant P-20 and DMSO were added to the above phosphate buffered saline at final concentrations of 0.01 vol % and 5 vol %, respectively, and the resulting mixture was used as running buffer. CAP reagent was immobilized on a Biacore sensor chip, Series S sensor chip CAP (GE healthcare), according to the instructions, and biotinylated TNFα was immobilized. Each synthetic peptide was added at multiple concentrations, and sensorgrams for binding to the immobilized TNFα were provided to measure dissociation constants (KD).
The obtained sensorgrams were analyzed using T200 evaluation software (GE healthcare) or Scrubber2 (Biologic software). First, solvent correction for DMSO and double reference (correction by subtracting sensorgrams of flow cells where TNFα was not immobilized and sensorgrams in the case where the buffer was added) were carried out. Second, binding rate constants (kₒₙ) and dissociation rate constants (koff) were calculated from curve fitting to the corrected sensorgrams, and KDs were determined by the relational expression KD=koff/kₒₙ.

T2 sequence (P01375 77-233 limits assumed): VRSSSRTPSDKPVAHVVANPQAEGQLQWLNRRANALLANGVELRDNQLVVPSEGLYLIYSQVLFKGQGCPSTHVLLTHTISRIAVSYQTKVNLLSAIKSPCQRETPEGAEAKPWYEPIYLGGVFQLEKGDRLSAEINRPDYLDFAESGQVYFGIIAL

Binder	Kd [nM]
[γEtAbu]T[Phg]I[NMeAla(4-thiazolyl)]WW[Phe(4-CF3)][dY][NMePhe(3-Cl)]DP[Sar]S-OH (lactam N-11; SMILES CC[C@H](C)[C@@H]1NC(=O)[C@H](c2ccccc2)NC(=O)[C@H]([C@@H](C)O)NC(=O)CCCN(CC)C(=O)C[C@@H](C(=O)N2CCC[C@H]2C(=O)N(C)CC(=O)N[C@@H](CO)C(=O)O)NC(=O)[C@H](Cc2cccc(Cl)c2)N(C)C(=O)[C@@H](Cc2ccc(O)cc2)NC(=O)[C@H](Cc2ccc(C(F)(F)F)cc2)NC(=O)[C@H](Cc2c[nH]c3ccccc23)NC(=O)[C@H](Cc2c[nH]c3ccccc23)NC(=O)[C@H](Cc2cscn2)N(C)C1=O, Chemically synthesized, HPLC purified) [Compound SP842]	160
A[Phe(4-CF3)]WWV[Sar]GP[Hyp(Et)]SD[NMeS][Met(O2)]S-OH (lactam N-11; SMILES CCO[C@@H]1C[C@H]2C(=O)N[C@@H](CO)C(=O)N[C@H](C(=O)N(C)[C@@H](CO)C(=O)N[C@@H](CCS(C)(=O)=O)C(=O)N[C@@H](CO)C(=O)O)CC(=O)N[C@@H](C)C(=O)N[C@@H](Cc3ccc(C(F)(F)F)cc3)C(=O)N[C@@H](Cc3c[nH]c4ccccc34)C(=O)N[C@@H](Cc3c[nH]c4ccccc34)C(=O)N[C@@H](C(C)C)C(=O)N(C)CC(=O)NCC(=O)N3CCC[C@H]3C(=O)N2C1, Chemically synthesized, HPLC purified) [Compound SP844]	20
A[NMeAla(4-thiazolyl)]IPVWW[Phe(4-CF3)][Met(O2)]VDW[NMeAla(4-thiazolyl)]S-OH (lactam N-11; SMILES CC[C@H](C)[C@@H]1NC(=O)[C@H](Cc2cscn2)N(C)C(=O)[C@H](C)NC(=O)C[C@@H](C(=O)N[C@@H](Cc2c[nH]c3ccccc23)C(=O)N(C)[C@@H](Cc2cscn2)C(=O)N[C@@H](CO)C(=O)O)NC(=O)[C@H](C(C)C)NC(=O)[C@H](CCS(C)(=O)=O)NC(=O)[C@H](Cc2ccc(C(F)(F)F)cc2)NC(=O)[C@H](Cc2c[nH]c3ccccc23)NC(=O)[C@H](Cc2c[nH]c3ccccc23)NC(=O)[C@H](C(C)C)NC(=O)[C@@H]2CCCN2C1=O, Chemically synthesized, HPLC purified) [Compound SP845]	940
ATIP[dY]WW[Phe(4-CF3)][Met(O2)]VDW[NMeAla(4-thiazolyl)]S-OH (lactam N-11; SMILES CC[C@H](C)[C@@H]1NC(=O)[C@H]([C@@H](C)O)NC(=O)[C@H](C)NC(=O)C[C@@H](C(=O)N[C@@H](Cc2c[nH]c3ccccc23)C(=O)N(C)[C@@H](Cc2cscn2)C(=O)N[C@@H](CO)C(=O)O)NC(=O)[C@H](C(C)C)NC(=O)[C@H](CCS(C)(=O)=O)NC(=O)[C@H](Cc2ccc(C(F)(F)F)cc2)NC(=O)[C@H](Cc2c[nH]c3ccccc23)NC(=O)[C@H](Cc2c[nH]c3ccccc23)NC(=O)[C@@H](Cc2ccc(O)cc2)NC(=O)[C@@H]2CCCN2C1=O, Chemically synthesized, HPLC purified) [Compound SP846]	2000
ATWI[NMeF][Phg]W[βAla][Phe(4-CF3)][Phg]DVTS-OH (lactam N-11; SMILES CC[C@H](C)[C@@H]1NC(=O)[C@H](Cc2c[nH]c3ccccc23)NC(=O)[C@H]([C@@H](C)O)NC(=O)[C@H](C)NC(=O)C[C@@H](C(=O)N[C@H](C(=O)N[C@H](C(=O)N[C@@H](CO)C(=O)O)[C@@H](C)O)C(C)C)NC(=O)[C@H](c2ccccc2)NC(=O)[C@H](Cc2ccc(C(F)(F)F)cc2)NC(=O)CCNC(=O)[C@H](Cc2c[nH]c3ccccc23)NC(=O)[C@H](c2ccccc2)NC(=O)[C@H](Cc2ccccc2)N(C)C1=O, Chemically synthesized, HPLC purified) [Compound SP848]	250

target: T2, biotinylated Recombinant Human Tumor …; assay: ECL immunoassay (MSD): biotinylated target on streptavidin plate, translated FlPu(urea)-labelled cyclic peptide (Translation Solution T), anti-fluorescein and SULFO-TAG anti-mouse antibody; no-template control 232
Description: as §1, §2

Binder	ECL signal
ATIP[dY]WW[Phe(4-CF3)][Met(O2)]VDW[NMeAla(4-thiazolyl)]SGSGSGS-{FlPu(urea)} (lactam N-11; reading uncertain, Translated in ECL Translation Solution T, cyclized and desulfurized; not isolated; also called translation product of template DNA DME-10) [SEQ ID NO: PE-10 (TNFα binder) peptide]	50700
ATWI[NMeF][Phg]W[βAla][Phe(4-CF3)][Phg]DVTSGSGSGS-{FlPu(urea)} (lactam N-11; reading uncertain, Translated in ECL Translation Solution T, cyclized and desulfurized; not isolated; also called translation product of template DNA DME-11) [SEQ ID NO: PE-11 (TNFα binder) peptide]	149000
A[Phe(4-CF3)]WWV[Sar]GP[Hyp(Et)]SD[NMeS][Met(O2)]SGSGSGS-{FlPu(urea)} (lactam N-11; reading uncertain, Translated in ECL Translation Solution T, cyclized and desulfurized; not isolated; also called translation product of template DNA DME-8) [SEQ ID NO: PE-8 (TNFα binder) peptide]	73300
A[NMeAla(4-thiazolyl)]IPVWW[Phe(4-CF3)][Met(O2)]VDW[NMeAla(4-thiazolyl)]SGSGSGS-{FlPu(urea)} (lactam N-11; reading uncertain, Translated in ECL Translation Solution T, cyclized and desulfurized; not isolated; also called translation product of template DNA DME-9) [SEQ ID NO: PE-9 (TNFα binder) peptide]	264000
